Experimental data reported in publication PMC10288639.

Tests used:
WT HLA-A*02:01/β2m = experiment: fluorescence polarisation
[1] = target: G120C/H31C HLA-A*02:01/β2m complex (open HLA-A*02:01); experiment: fluorescence polarisation

Row | Substance | IC50 (WT HLA-A*02:01/β2m) [nM] | IC50 [1] [nM] | fold of the apparent association rate constant k^app on over WT [1] [fold]
1 | TAX9 (peptide) | 250 | 250 | 
2 | fluorophore-labeled TAX9 (TAMRA-TAX9) (peptide) |  |  | > 10
